This assay deals with T1, human p75^NTR JXT domain (K273-D332) (human, UniProt P08138 273-332).
T1 sequence (looked up): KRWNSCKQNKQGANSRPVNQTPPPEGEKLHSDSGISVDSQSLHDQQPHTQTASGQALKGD
The assay is described as follows: NMR titration.

B1: RhoGDI NTD^S34D (A2-A60) (domain or fragment, human, UniProt P52565 2-60, looked up)
chain: AEQEPTAEQLAQIAAENEEDEHSVNYKPPAQKDIQEIQELDKDDESLRKYKEALLGRVA
B1: the binding result is “binds”.

The values above are taken from publication doi:10.1101/2023.10.13.562155 (bioRxiv, 2023).
